Changes are numbered by the printed parent chain. Numbers in names are those of the source. Where two headings read alike, the source gives them in different places.
T1: RAD52-CTD (UniProt P43351 217-418)
T1 sequence: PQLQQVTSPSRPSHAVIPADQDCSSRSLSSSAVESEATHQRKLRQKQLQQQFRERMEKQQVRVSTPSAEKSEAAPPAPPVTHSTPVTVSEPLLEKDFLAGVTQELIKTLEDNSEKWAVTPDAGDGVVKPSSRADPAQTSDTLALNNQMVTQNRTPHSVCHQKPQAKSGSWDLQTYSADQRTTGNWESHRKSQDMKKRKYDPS

T2: RAD52 full length (UniProt P43351 1-418)
T2 sequence: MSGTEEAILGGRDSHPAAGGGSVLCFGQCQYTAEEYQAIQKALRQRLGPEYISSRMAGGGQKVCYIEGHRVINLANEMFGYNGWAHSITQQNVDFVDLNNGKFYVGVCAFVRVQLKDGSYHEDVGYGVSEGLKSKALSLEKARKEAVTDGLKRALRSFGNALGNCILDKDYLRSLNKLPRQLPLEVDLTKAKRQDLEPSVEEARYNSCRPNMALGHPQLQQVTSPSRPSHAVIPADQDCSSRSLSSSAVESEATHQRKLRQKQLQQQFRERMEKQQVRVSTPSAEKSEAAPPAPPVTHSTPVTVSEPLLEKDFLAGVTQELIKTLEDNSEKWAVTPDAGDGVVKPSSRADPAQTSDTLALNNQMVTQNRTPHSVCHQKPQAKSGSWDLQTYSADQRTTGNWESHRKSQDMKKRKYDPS

B1: no. 517 63-mer RNA (ssRNA)
RNA: UCCUUUUGAUAAGAGGUCAUUUUUGCGGAUGGCUUAGAGCUUAAUUGCUGAAUCUGGUGCUGU
B2: no. 1 63-mer ssDNA (ssDNA)
DNA: ACAGCACCAGATTCAGCAATTAAGCTCTAAGCCATCCGCAAAAATGACCTCTTATCAAAAGGA
B3: Human RPA70N (1-120) (domain or fragment)
chain: MVGQLSEGAIAAIMQKGDTNIKPILQVINIRPITTGNSPPRYRLLMSDGLNTLSSFMLATQLNPLVEEEQLSSNCVCQIHRFIVNTLKDGRRVVILMELEVLKSAEAVGVKIGNPVPYNE
B4: GST-tagged RAD52 CTD (217-418) wild type (domain or fragment)
chain: T1 sequence
B5: 15N-labeled RAD52-CTD (217-418), GST tag cleaved (domain or fragment)
chain: T1 sequence
modifications: uniformly 15N labeled
B6: GST-tagged RAD52 CTD (217-418) L314A/V317N/L321Q/I322Q/L325A/W332A (domain or fragment, human, UniProt P43351 217-418, looked up)
chain: T1 sequence with L98A, V101N, L105Q, I106Q, L109A, W116A

Tests used:
RAD52-CTD [1] = target: T1, RAD52-CTD; assay: EMSA
RAD52 full length [2] = target: T2, RAD52 full length; assay: EMSA
[3] = target: RPA heterotrimer (RPA70:RPA32:RPA14) (human, UniProt P27694;P15927;P35244 1-616;1-270;1-121); assay: EMSA
RAD52-CTD [4] = target: T1, RAD52-CTD; assay: EMSA; remark: listed apart in the source
RAD52 full length [5] = target: T2, RAD52 full length; assay: EMSA; remark: listed apart in the source
[6] = target: B5; assay: NMR titration
[7] = target: T3, full-length RPA trimer (RPA70:RPA14:RPA32) (human, UniProt P27694;P15927;P35244); assay: pull-down
[8] = target: T3, full-length RPA trimer …; assay: NMR titration
[9] = target: T3, full-length RPA trimer …; assay: pull-down; remark: listed apart in the source

T3 sequence (P15927 whole entry, chain 2 of 2): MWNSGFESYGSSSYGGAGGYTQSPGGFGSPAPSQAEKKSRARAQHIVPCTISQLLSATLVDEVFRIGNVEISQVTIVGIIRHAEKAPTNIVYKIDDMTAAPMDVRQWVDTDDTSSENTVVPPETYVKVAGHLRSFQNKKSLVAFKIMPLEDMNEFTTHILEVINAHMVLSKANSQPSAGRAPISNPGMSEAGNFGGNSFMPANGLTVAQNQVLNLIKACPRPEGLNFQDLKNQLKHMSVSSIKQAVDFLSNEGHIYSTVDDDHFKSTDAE
T3 sequence (P35244 whole entry, chain 3 of 2): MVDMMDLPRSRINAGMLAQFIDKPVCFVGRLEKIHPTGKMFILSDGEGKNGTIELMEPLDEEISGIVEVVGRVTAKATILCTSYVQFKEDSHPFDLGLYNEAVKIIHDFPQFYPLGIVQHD
RPA heterotrimer (RPA70:RPA32:RPA14), sequence (P15927 whole entry, chain 2 of 2): as the sequence (P15927 whole entry, chain 2 of 2) above
RPA heterotrimer (RPA70:RPA32:RPA14), sequence (P35244 whole entry, chain 3 of 2): as the sequence (P35244 whole entry, chain 3 of 2) above

Binder: B1
- binding result (RAD52-CTD [1]): no binding
- binding result (RAD52 full length [2]): binds
- binding result [3]: binds

Binder: B2
- binding result (RAD52-CTD [4]): no binding
- binding result (RAD52 full length [5]): binds

Binder: B3
- binding result [6]: binds

Binder: B4
- binding result [7]: binds

Binder: B5
- binding result [8]: binds

Binder: B6
- binding result [9]: binds
